Data taken from patent US20220356255A1 (CENTESSA PHARMACEUTICALS UK, published 2022).
Blank lines part the entries; values can stand above or below the binder they belong to.

Columns and labels:
[1] = target: T1, human PD-L1 on cells (human, UniProt Q9NZQ7 19-290); assay: flow cytometry on MDA-MB-231 cells, pH 6
T1 construct: Endogenous on MDA-MB-231 cells or transfected into HEK293FF cells (Sino Biological plasmid); the assay field says which; also called native PD-L1 on MDA-MB-231 cells; PD-L1 expressing MDA-MB-231 cells
T1 sequence (Q9NZQ7 19-290 limits assumed): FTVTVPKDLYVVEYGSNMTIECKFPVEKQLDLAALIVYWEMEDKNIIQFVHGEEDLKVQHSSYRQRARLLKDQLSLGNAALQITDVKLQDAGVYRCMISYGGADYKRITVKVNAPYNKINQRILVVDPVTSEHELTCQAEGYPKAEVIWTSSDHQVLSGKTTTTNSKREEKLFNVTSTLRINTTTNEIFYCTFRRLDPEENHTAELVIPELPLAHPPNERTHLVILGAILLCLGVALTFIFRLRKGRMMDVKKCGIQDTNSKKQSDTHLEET

[2] = target: T1, human PD-L1 on cells; assay: flow cytometry on MDA-MB-231 cells, pH 7.4
[3] = target: T1, human PD-L1 on cells; assay: flow cytometry on MDA-MB-231 cells, pH 6.5
[4] = target: T1, human PD-L1 on cells; assay: flow cytometry on MDA-MB-231 cells, Krebs buffer; ratio of EC50 values
Procedure: (§1) Anti-PD-L1 affinity matured Fabs were tested for their ability to bind to native PD-L1 in a cell line, (MDA-MB-231 cells) in a buffer resembling the tumor microenvironment (Krebs-lactate).

[5] = target: T2, biotinylated human PD-L1 (human, UniProt Q9NZQ7 19-239, limits assumed, biotinylated (sites not given)); assay: competition ELISA, Fab with biotinylated PD-L1 on coated PD-1-Fc, pH 6
T2 construct: Bought from R&D Systems; also called biotinylated-PD-L1; human PD-L1 biotin
T2 sequence (Q9NZQ7 19-239 limits assumed): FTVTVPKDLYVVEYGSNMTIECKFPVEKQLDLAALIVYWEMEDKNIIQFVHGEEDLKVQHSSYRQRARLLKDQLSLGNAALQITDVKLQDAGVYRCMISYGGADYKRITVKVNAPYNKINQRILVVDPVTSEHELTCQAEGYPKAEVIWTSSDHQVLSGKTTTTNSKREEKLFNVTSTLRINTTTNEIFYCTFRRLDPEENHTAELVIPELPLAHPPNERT

[6] = target: T3, human PD-L1-Fc protein (human, UniProt Q9NZQ7 19-239); assay: ELISA, purified Fab on coated human PD-L1-Fc, pH 6 (FIG. 4)
T3 construct: Bought from R&D Systems; also called immobilised PD-L1-Fc; not shown: Fc part of the bought fusion protein, not described
T3 sequence (Q9NZQ7 19-239 limits assumed): as above

[7] = target: T3, human PD-L1-Fc protein; assay: ELISA, Fab on coated human PD-L1-Fc; ratio from extrapolating an OD of 0.3 at pH 6 versus pH 7.4
[8] = target: T3, human PD-L1-Fc protein; assay: ELISA, Fab on coated human PD-L1-Fc, pH 7.4
[9] = target: T3, human PD-L1-Fc protein; assay: BIAcore off rate, unpurified periplasmic extract Fab on PD-L1, pH 7.4
[10] = target: T1, human PD-L1 on cells; assay: flow cytometry on MDA-MB-231 cells, Krebs buffer, pH 6.5
Procedure: as §1

[11] = target: T2, biotinylated human PD-L1; assay: competition ELISA, Fab with biotinylated PD-L1 on coated PD-1-Fc
[12] = target: T2, biotinylated human PD-L1; assay: competition ELISA, Fab with biotinylated PD-L1 on coated PD-1-Fc; ratio of IC50 values
[13] = target: T2, biotinylated human PD-L1; assay: competition ELISA, Fab with biotinylated PD-L1 on coated PD-1-Fc, pH 6; remark: listed apart in the source
[14] = target: T3, human PD-L1-Fc protein; assay: BIAcore off rate, unpurified periplasmic extract Fab on PD-L1, pH 6
[15] = target: T2, biotinylated human PD-L1; assay: competition ELISA, Fab with biotinylated PD-L1 on coated PD-1-Fc, pH 6.5
[16] = target: T3, human PD-L1-Fc protein; assay: ELISA, Fab on coated human PD-L1-Fc, pH 6
[17] = target: T1, human PD-L1 on cells; assay: flow cytometry on MDA-MB-231 cells, Krebs buffer, pH 7.4
Procedure: as §1

[18] = target: T2, biotinylated human PD-L1; assay: competition ELISA, Fab with biotinylated PD-L1 on coated PD-1-Fc, pH 7.4
[19] = target: T1, human PD-L1 on cells; assay: flow cytometry on MDA-MB-231 cells, Krebs buffer, pH 6
Procedure: as §1

[20] = target: T3, human PD-L1-Fc protein; assay: BIAcore off rate, unpurified periplasmic extract Fab on PD-L1

B2: 8D06 mAb (antibody, V domains shown)
VH: QVQLVQSGGGVVQPGRSLRLSCAASGFTFSSYGMYWVRQAPGKGLEWVAVISYDGSNKYYADSVKGRFTISRDNSKNTLNLQMNSLRAEDTAVYYCAKGALTHWGVVIGDGMDVWGQGTTVTVSS
VL: NFMLTQPHSVSESPGKTVTISCVLSPRTHAGHYYRWYQQRPGSSPTTVIYEDDQRPSGVPDRFSGSIDSSSNSASLTISGLKTEDEADYYCQSFDSTNPWVFGGGTKLTVL
notes: Formatted into an IgG1; also called 8D06 IgG1
- EC50 [1]: 0.11 nM
- EC50 [2]: 0.08 nM
- EC50 [3]: 0.11 nM

B4: 8A04 mAb (antibody, V domains shown)
VH: QVQLVQSGGGVVQPGRSLRLSCAASGFTFSSYGMYWVRQAPGKGLEWVAVISYDGSNKYYADSVKGRFTISRDNSKNTLNLQMNSLRAEDTAVYYCAKGALTHWGVVIGDGMDVWGQGTTVTVSS
VL: NFMLTQPHSVSESPGKTVTISCMRTGTGNKGHYTRWYQQRPGSSPTTVIYEDDQRPSGVPDRFSGSIDSSSNSASLTISGLKTEDEADYYCQSFDSTNPWVFGGGTKLTVL
notes: Formatted into an IgG1; also called 8A04 IgG1
- EC50 [1]: 0.09 nM
- EC50 [2]: 0.09 nM
- EC50 [3]: 0.11 nM

Further lines, results first:

- EC50 [1]: 0.08 nM
- EC50 [2]: 0.09 nM
- EC50 [3]: 0.07 nM
B1: 8G08 mAb (antibody, V domains shown)
VH: QVQLVQSGGGVVQPGRSLRLSCAASGFTFSSYGMYWVRQAPGKGLEWVAVISYDGSNKYYADSVKGRFTISRDNSKNTLNLQMNSLRAEDTAVYYCAKGALTHWGVVIGDGMDVWGQGTTVTVSS
VL: NFMLTQPHSVSESPGKTVTISCISNDVPASGHYHRWYQQRPGSSPTTVIYEDDQRPSGVPDRFSGSIDSSSNSASLTISGLKTEDEADYYCQSFDSTNPWVFGGGTKLTVL
notes: Formatted into an IgG1; also called 8G08 IgG1

- Ratio pH 6:7.4 [4]: 8.35
- IC50 [5]: 12.1 nM
- concentration at saturation of binding [6]: 4 nM
- Ratio pH 6:7.4 [7]: 53
- EC50 [8]: > 100 nM
- koff [9]: 0.00308 s⁻¹
- EC50 [10]: 2.95 nM
- fold less inhibitory activity at pH 6.5 than at pH 6 [11]: ~3 fold
- Ratio pH 6:7.4 [12]: > 8.26
- fold less (IC50) than the control Fab 2.7A04OPT at pH 6 [13]: ~3 fold
- koff [14]: 0.000823 s⁻¹
- IC50 [15]: 41.6 nM
- EC50 [16]: 0.1 nM
- EC50 [17]: 13.2 nM
- IC50 [18]: > 100 nM
- EC50 [19]: 1.58 nM
- Ratio pH 6 vs 7.4 [20]: 27
B3: Fab 8G08 (Fab, V domains shown)
VH: QVQLVQSGGGVVQPGRSLRLSCAASGFTFSSYGMYWVRQAPGKGLEWVAVISYDGSNKYYADSVKGRFTISRDNSKNTLNLQMNSLRAEDTAVYYCAKGALTHWGVVIGDGMDVWGQGTTVTVSS
VL: NFMLTQPHSVSESPGKTVTISCISNDVPASGHYHRWYQQRPGSSPTTVIYEDDQRPSGVPDRFSGSIDSSSNSASLTISGLKTEDEADYYCQSFDSTNPWVFGGGTKLTVL
notes: Purified Fab prepared from IgG with the Pierce kit; also called 8G08 Fab
